Results published in patent US20070238862A1 (published 2007).
No end group written: not given here.

B1: LFPGQFAFS (peptide)
peptide: LFPGQFAFS
B2: IFPGQFAFS (peptide)
peptide: IFPGQFAFS
B3: YFPGQFAFD-CONH2 (peptide)
peptide: YFPGQFAFD-NH2
B4: YVPGQFAFS (peptide)
peptide: YVPGQFAFS
B5: FLPGQFAFS (peptide)
peptide: FLPGQFAFS

Each binder was assayed against T1, human ChemerinR (human, UniProt Q99788 3-373) (assay: cell-based or functional assay).
T1 sequence: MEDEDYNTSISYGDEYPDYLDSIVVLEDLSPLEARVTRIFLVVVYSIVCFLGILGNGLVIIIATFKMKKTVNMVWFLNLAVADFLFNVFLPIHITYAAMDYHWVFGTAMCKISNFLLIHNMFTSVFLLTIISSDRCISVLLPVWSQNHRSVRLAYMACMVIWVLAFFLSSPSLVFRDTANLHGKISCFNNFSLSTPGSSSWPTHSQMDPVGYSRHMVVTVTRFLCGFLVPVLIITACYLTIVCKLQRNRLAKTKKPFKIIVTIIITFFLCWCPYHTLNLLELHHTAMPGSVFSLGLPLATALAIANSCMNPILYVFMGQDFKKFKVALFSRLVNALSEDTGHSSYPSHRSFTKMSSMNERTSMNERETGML

Point of comparison: B4, “EC50 (nM), Calcium flux-Aequoscreen assay on ChemerinR expressing cells” value 43.8 nM. Against it:
- B1 — 1.5-fold higher, 66.3 nM
- B2 — 1.7-fold lower, 25.8 nM
- B3 — 10-fold lower, 4.3 nM
- B5 — 1.5-fold lower, 29.1 nM
